Consider 1 substance from article PMC3189723.

Usually Kd stands for a measure of binding affinity in units of concentration. A lower Kd goes with higher affinity.

For the assay, the target named is ribosome nascent chain complex RNC_(1A9L) labeled with Cm on the nascent chain (1A9L 56 amb). Nature of the assay: FRET or BRET.

Consider “BODIPY-Fl labeled Signal Recognition Particle (SRP; protein component Ffh) (from UniProt P0AGD7 1-453) (complex)”, for which the Kd was 0.73 nM.
